# Where “and” joins values, the source holds several entries; their conditions need not be identical. Identical values can stand only once. Where no end group is shown, it is not given here.
# How the values were obtained:
# [1] = GLP Aggregation Assay (time to onset of aggregation, turbidity at 350 nm); type: physicochemical; settings: for Aggregation Time: 0.3 mg/mL in 10 mM citrate, 10 mM phosphate, 150 mM NaCl, pH 7.4 to 7.5, 37° C., stirred, turbidity at 350 nm; for Aggregation Time in Hours: *Aggregation time determined at 30° C.
# Protocol: GLP peptides of this invention were analyzed with respect to their potential to aggregate in solution. In general, peptides in solution were stirred at elevated temperature in a suitable buffer while recording turbidity at 350 nm as a function of time. Time to the onset of aggregation was measured to quantify the potential of a given GLP molecule to aggregate under these stressed conditions.
# A GLP-1 compound was first dissolved under alkaline conditions (pH 10.5) for 30 minutes to dissolve any pre-aggregated material. The solution was then adjusted to pH 7.4 and filtered. Specifically, 4 mg of a lyophilized GLP-1 compound was dissolved in 3 ml of 10 mM phosphate/10 mM citrate. The pH was adjusted to 10.0-10.5 and held for 30 minutes. The solution was adjusted with HCl to pH 7.4 and filtered through a suitable filter, for example a Millex GV syringe filter (Millipore Corporation, Bedford, Mass.). This solution was then diluted to a final sample containing 0.3 mg/mL protein in 10 mM citrate, 10 mM phosphate, 150 mM NaCl, and adjusted to pH 7.4 to 7.5. […] Every five minutes the turbidity of the solution was measured at 350 nm on an AVIV Model 14DS UV-VIS spectrophotometer (Lakewood, N.J.). For 30 seconds prior to and during the measurement the solution was stirred using a magnetic stir bar from Starna Cells, Inc. (Atascadero, Calif.). An increase in OD at 350 nm indicates aggregation of the GLP-peptide. The time to aggregation was approximated by the intersection of linear fits to the pre-growth and growth phase according to method of Drake (Arvinte T, Cudd A, and Drake A F. (1993) J. Bio. Chem. 268, 6415-6422).
# The cuvette was cleaned between experiments with a caustic soap solution (e.g., Contrad-70).
# The results for a number of GLP-1 compounds of the present invention are reported in Table 1 as the time in hours required for the compound to aggregate.
# [2] = system: GLP-1 receptor; assay: GLP-1 receptor activation, in vitro assays; type: cell-based; settings: activity relative to the activity of GLP-1(7-37)OH
# Source text: “Insulinotropic activity” refers to stimulating insulin secretion in response to elevated glucose levels, thereby causing glucose uptake by cells and decreased serum glucose levels. Insulinotropic activity can be assessed by methods known in the art, including using in vivo experiments and in vitro assays that measure GLP-1 receptor binding activity or receptor activation, e.g., assays employing pancreatic islet cells or insulinoma cells, as described in EP 619,322 to Gelfand, et al., and U.S. Pat. No. 5,120,712, respectively. The entire teachings of these references are incorporated herein by reference.
# The ability of the GLP-1 compounds of the present invention to activate the GLP-1 receptor was assessed using in vitro assays such as those described in EP 619,322 to Gelfand, et al., and U.S. Pat. No. 5,120,712, respectively. The entire teachings of these references are incorporated herein by reference.
# [3] = Zinc precipitation of GLP-1 compounds (A280 of supernatant); type: physicochemical; settings: HEPES pH 7.4, 22° C., 18 hours
# Protocol: Individual GLP-1 compounds were prepared as described in Examples 1 or 2. 3 mg of an individual lyophilized GLP molecule was dissolved in 3 ml 0.1 M HEPES buffer pH 10.5. The pH of the resulting solution was then adjusted to between 10.0 and 10.5 with 0.2 N NaOH. The solution was stirred at ambient temperature for 30 minutes and the solution was then adjusted to a pH of 7.4 with 0.2 N HCl. The solution was filtered through an appropriate syringe filter, for example a Millex GV syringe filter (Millipore Corporation, Bedford, Mass.), and the concentration of the GLP-1 compound was estimated by measuring the absorption at 280 nm in a spectrophotometer, for example a Beckman DU640. The protein concentration was then adjusted to 200 μM in HEPES pH 7.4.
# The filtered GLP-1 solutions (100 μl) were diluted with 100 μl of 0.1 M HEPES pH 7.4 containing various levels of zinc chloride in an ELISA plate, (e.g. Falcon Microtest™ 96) resulting in 200 μl of solution containing various levels of zinc chloride and 100 μM GLP-1 compounds. These solutions were incubated at ambient temperature (22° C.) for 18 hours and then centrifuged, for example, in a Jouan CR412 centrifuge with microplate adapters. 150 μl of the supernatants after centrifugation were then transferred to a UV-readable ELISA microtiter plate (e.g. Costar UV plate) and the OD at 280 was determined in a microplate reader (e.g. Molecular Devices SPECTRAmax PLUS, SOFTmax PRO). A280 values are the result of two independent determinations.
# [4] = Zn/GLP-1 molar ratio 0, 100 μM GLP-1 compound
# [5] = Zn/GLP-1 molar ratio 0.3, 100 μM GLP-1 compound
# [6] = Zn/GLP-1 molar ratio 0.5, 100 μM GLP-1 compound
# [7] = Zn/GLP-1 molar ratio 0.7, 100 μM GLP-1 compound
# [8] = Zn/GLP-1 molar ratio 1, 100 μM GLP-1 compound
# [9] = Zn/GLP-1 molar ratio 2, 100 μM GLP-1 compound
# [10] = Zn/GLP-1 molar ratio 3, 100 μM GLP-1 compound
# [11] = Zn/GLP-1 molar ratio 5, 100 μM GLP-1 compound
Substance,GLP-1 Receptor Activation [2],Aggregation Time [1],also measured
GLP-1(7-37)OH [reference compound],,1 h,"A280 [3, 4]: 0.337; A280 [3, 5]: 0.318; A280 [3, 6]: 0.329; A280 [3, 7]: 0.253; A280 [3, 8]: 0.148; A280 [3, 9]: 0.092; A280 [3, 10]: 0.081; A280 [3, 11]: 0.074"
"Gly^8-GLP-1(7-37)OH (HGEGTFTSDVSSYLEGQAAKEFIAWLVKGRG-OH; UniProt P01275 98-128, looked up, variant A8G) [reference compound]",,,"A280 [3, 4]: 0.32; A280 [3, 5]: 0.166; A280 [3, 6]: 0.151; A280 [3, 7]: 0.156; A280 [3, 8]: 0.119; A280 [3, 9]: 0.089; A280 [3, 10]: 0.085; A280 [3, 11]: 0.078"
Gly^8-Glu^22-GLP-1(7-37)OH,,19 h,
Val^8-Ala^11-GLP-1(7-37)OH (HVEGAFTSDVSSYLEGQAAKEFIAWLVKGRG),0.021,10 h,
Val^8-Ala^16-GLP-1(7-37)OH (HVEGTFTSDASSYLEGQAAKEFIAWLVKGRG),0.112,16 h,
Val^8-Ala^27-GLP-1(7-37)OH (HVEGTFTSDVSSYLEGQAAKAFIAWLVKGRG),,2 h,
Val^8-GLP-1(7-37)OH [reference compound],,0.9 ± 0.2 h,"A280 [3, 4]: 0.3; A280 [3, 5]: 0.27; A280 [3, 6]: 0.26; A280 [3, 7]: 0.124; A280 [3, 8]: 0.06; A280 [3, 9]: 0.025; A280 [3, 10]: 0.021; A280 [3, 11]: 0.019"
Val^8-Glu^16-GLP-1(7-37)OH (HVEGTFTSDESSYLEGQAAKEFIAWLVKGRG),0.047,12 h,
Val^8-Glu^22-Ala^27-GLP-1(7-37)OH (HVEGTFTSDVSSYLEEQAAKAFIAWLVKGRH),,>45 h,
Val^8-Glu^22-Lys^23-GLP-1(7-37)OH (HVEGTFTSDVSSYLEEKAAKEFIAWLVKGRG),1.43,>65 h,
Val^8-Glu^23-GLP-1(7-36)OH (HVEGTFTSDVSSYLEGEAAKEFIAWLVKGR),0.28,65 h,
Val^8-Glu^35-GLP-1(7-37)OH (HVEGTFTSDVSSYLEGQAAKEFIAWLVKERG),0.15,63 h,
Val^8-Glu^36-GLP-1(7-37)OH (HVEGTFTSDVSSYLEGQAAKEFIAWLVKGEG),0.11,>45 h,
Val^8-Gly^33-GLP-1(7-37)OH (HVEGTFTSDVSSYLEGQAAKEFIAWLGKGRG),0.01,9 h,
Val^8-His^22-GLP-1(7-37)OH (HVEGTFTSDVSSYLEHQAAKEFIAWLVKGRG),0.14,>75 h,
Val^8-His^24-GLP-1(7-37)OH (HVEGTFTSDVSSYLEGQHAKEFIAWLVKGRG),0.007,3 h,
Val^8-His^30-GLP-1(7-37)OH (HVEGTFTSDVSSYLEGQAAKEFIHWLVKGRG),0.19,13 h,
Val^8-His^35-GLP-1(7-37)OH (HVEGTFTSDVSSYLEGQAAKEFIAWLVKHRG),0.41,> 45 h and 30 h,
Val^8-His^36-GLP-1(7-37)OH (HVEGTFTSDVSSYLEGQAAKEFIAWLVKGHG),0.22,8 h,
Val^8-Phe^22-GLP-1(7-37)OH,,,"A280 [3, 4]: 0.31; A280 [3, 5]: 0.1485; A280 [3, 6]: 0.1165; A280 [3, 7]: 0.1015; A280 [3, 8]: 0.1265; A280 [3, 9]: 0.092; A280 [3, 10]: 0.061; A280 [3, 11]: 0.00795"

# Further lines, with some results ahead:
GLP-1 Receptor Activation [2],Substance,Aggregation Time [1],also measured
0.7,Ala^8-Glu^26-GLP-1(7-37)OH (HAEGTFTSDVSSYLEGQAAEEFIAWLVKGRG),>24 h,
0.8,Ala^8-His^26-GLP-1(7-37)OH (HAEGTFTSDVSSYLEGQAAHEFIAWLVKGRG),>24 h,
0.29,Gly^8-Glu^30-GLP-1(7-37)OH (HGEGTFTSDVSSYLEGQAAKEFIEWLVKGRG),>40 h,
0.282,Gly^8-His^11-GLP-1(7-37)OH (HGEGHFTSDVSSYLEGQAAKEFIAWLVKGRG),,Aggregation Time in Hours [1]: 9* Hours
0.1,Val^8-Ala^33-GLP-1(7-37)OH (HVEGTFTSDVSSYLEGQAAKEFIAWLAKGRG),20 h,
0.15,Val^8-Asp^30-GLP-1(7-37)OH (HVEGTFTSDVSSYLEGQAAKEFIDWLVKGRG),>45 h,
1.0,Val^8-Glu^22-GLP-1(7-36)NH2 (HVEGTFTSDVSSYLEEQAAKEFIAWLVKGR-NH2),>65 h,
0.47,Val^8-Glu^22-Gln^23-GLP-1(7-37)OH (HVEGTFTSDVSSYLEEQAAKEFIAWLVKGRG),>20 h,
0.29,Val^8-Glu^30-GLP-1(7-37)OH (HVEGTFTSDVSSYLEGQAAKEFIEWLVKGRG),30 h,
0.039,Val^8-Glu^33-GLP-1(7-37)OH (HVEGTFTSDVSSYLEGQAAKEFIAWLEKGRG),>70 h,
0.17,Val^8-Glu^34-GLP-1(7-37)OH (HVEGTFTSDVSSYLEGQAAKEFIAWLVEGRG),,Aggregation Time in Hours [1]: >40* Hours
0.34,Val^8-Gly^34-Lys^35-GLP-1(7-37)OH (HVEGTFTSDVSSYLEGQAAKEFIAWLVGKRG),27 h,
0.53,Val^8-Gly^36-Pro^37-GLP-1(7-37)NH2 (HVEGTFTSDVSSYLEGQAAKEFIAWLVKGGP-NH2),2 h,
0.37,Val^8-His^27-GLP-1(7-37)OH (HVEGTFTSDVSSYLEGQAAKHFIAWLVKGRG),10 h,
0.33,Val^8-His^37-GLP-1(7-37)OH (HVEGTFTSDVSSYLEGQAAKEFIAWLVKGRH),>40 h,

# From patent US20060263849A1, “Glucagon-like peptide-1 analogs” (priority 2000, published 2006)
